# Laboratory results reported in US20180155451A1 (published 2018).
# T1: FcγRIIa R (FcγRIIa, allotype R, Arg at position 131), extracellular domain with C-terminal His tag (human, UniProt P12318 34-217)
# T1 construct: extracellular domain; soluble receptor used as Biacore analyte; also called 2aR; FcgRIIa R
# T1 sequence (looked up): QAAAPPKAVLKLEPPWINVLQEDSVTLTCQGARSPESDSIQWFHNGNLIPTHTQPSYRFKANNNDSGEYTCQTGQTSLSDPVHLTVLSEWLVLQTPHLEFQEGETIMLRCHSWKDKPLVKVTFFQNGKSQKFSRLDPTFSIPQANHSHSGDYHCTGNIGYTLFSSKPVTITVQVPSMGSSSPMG
# T2: FcγRIIb, extracellular domain with C-terminal His tag (human, UniProt P31994 43-217)
# T2 construct: extracellular domain; soluble receptor used as Biacore analyte; also called 2b; FcgRIIb
# T2 sequence (looked up): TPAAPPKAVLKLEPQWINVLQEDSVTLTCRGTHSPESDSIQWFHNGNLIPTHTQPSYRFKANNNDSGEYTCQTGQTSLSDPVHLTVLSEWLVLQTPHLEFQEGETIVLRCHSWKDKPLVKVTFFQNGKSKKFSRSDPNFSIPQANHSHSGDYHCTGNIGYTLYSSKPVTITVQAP
# B1: heterodimerized antibody GpH7-A5/GpH7-B3 variant K326_10E/GpL16-k0 (antibody, human IgG1, kappa)
# heavy 1: not shown
# heavy 2: not shown
# light: DIVMTQSPLSLPVTPGEPASISCQASESLVHSNRNTYLHWYLQKPGQSPQLLIYKVSNRFSGVPDRFSGSGSGTDFTLKISRVEAEDVGVYYCSQNTHVPPTFGQGTKVEIERTVAAPSVFIFPPSDEQLKSGTASVVCLLNNFYPREAKVQWKVDNALQSGNSQESVTEQDSKDSTYSLSSTLTLSKADYEKHKVYACEVTHQGLSSPVTKSFNRGEC
# notes: He Ab: anti-glypican-3 IgG1, alteration in one H chain only; also called He Ab
# B2: heterodimerized antibody GpH7-A5/GpH7-B3 variant Y300_10E/GpL16-k0 (antibody, human IgG1, kappa)
# heavy 1: not shown
# heavy 2: not shown
# light: B1 light
# notes: as for B1
# B3: heterodimerized antibody GpH7-A5/GpH7-B3 variant V266_07I/GpL16-k0 (antibody, human IgG1, kappa)
# heavy 1: not shown
# heavy 2: not shown
# light: B1 light
# notes: as for B1
# B4: heterodimerized antibody GpH7-A5/GpH7-B3 variant P238_10E/GpL16-k0 (antibody, human IgG1, kappa)
# heavy 1: not shown
# heavy 2: not shown
# light: B1 light
# notes: as for B1
# B5: heterodimerized antibody GpH7-A5/GpH7-B3 variant L328_10E/GpL16-k0 (antibody, human IgG1, kappa)
# heavy 1: not shown
# heavy 2: not shown
# light: B1 light
# notes: as for B1
# B6: heterodimerized antibody GpH7-A5/GpH7-B3 variant S239_10E/GpL16-k0 (antibody, human IgG1, kappa)
# heavy 1: not shown
# heavy 2: not shown
# light: B1 light
# notes: as for B1
# B7: heterodimerized antibody GpH7-A5/GpH7-B3 variant V266_06M/GpL16-k0 (antibody, human IgG1, kappa)
# heavy 1: not shown
# heavy 2: not shown
# light: B1 light
# notes: as for B1
# B8: heterodimerized antibody GpH7-A5/GpH7-B3 variant N325_20W/GpL16-k0 (antibody, human IgG1, kappa)
# heavy 1: not shown
# heavy 2: not shown
# light: B1 light
# notes: as for B1
# B9: heterodimerized antibody GpH7-A5/GpH7-B3 variant P238_08L/GpL16-k0 (antibody, human IgG1, kappa)
# heavy 1: not shown
# heavy 2: not shown
# light: B1 light
# notes: as for B1
# B10: heterodimerized antibody GpH7-A5/GpH7-B3 variant L328_04F/GpL16-k0 (antibody, human IgG1, kappa)
# heavy 1: not shown
# heavy 2: not shown
# light: B1 light
# notes: as for B1
# B11: heterodimerized antibody GpH7-A5/GpH7-B3 variant S267_10E/GpL16-k0 (antibody, human IgG1, kappa)
# heavy 1: not shown
# heavy 2: not shown
# light: B1 light
# notes: as for B1
# B12: heterodimerized antibody GpH7-A5/GpH7-B3 variant S239_09D/GpL16-k0 (antibody, human IgG1, kappa)
# heavy 1: not shown
# heavy 2: not shown
# light: B1 light
# notes: as for B1
# B13: heterodimerized antibody GpH7-A5/GpH7-B3 variant V266_04F/GpL16-k0 (antibody, human IgG1, kappa)
# heavy 1: not shown
# heavy 2: not shown
# light: B1 light
# notes: as for B1
# B14: heterodimerized antibody GpH7-A5/GpH7-B3 variant P238_09D/GpL16-k0 (antibody, human IgG1, kappa)
# heavy 1: not shown
# heavy 2: not shown
# light: B1 light
# notes: as for B1
# B15: heterodimerized antibody GpH7-A5/GpH7-B3 variant N325_08L/GpL16-k0 (antibody, human IgG1, kappa)
# heavy 1: not shown
# heavy 2: not shown
# light: B1 light
# notes: as for B1
# B16: heterodimerized antibody GpH7-A5/GpH7-B3 variant S267_02A/GpL16-k0 (antibody, human IgG1, kappa)
# heavy 1: not shown
# heavy 2: not shown
# light: B1 light
# notes: as for B1
# B17: heterodimerized antibody GpH7-A5/GpH7-B3 variant P238_15Y/GpL16-k0 (antibody, human IgG1, kappa)
# heavy 1: not shown
# heavy 2: not shown
# light: B1 light
# notes: as for B1
# B18: heterodimerized antibody GpH7-A5/GpH7-B3 variant P271_01G/GpL16-k0 (antibody, human IgG1, kappa)
# heavy 1: not shown
# heavy 2: not shown
# light: B1 light
# notes: as for B1
# B19: heterodimerized antibody GpH7-A5/GpH7-B3 variant N325_06M/GpL16-k0 (antibody, human IgG1, kappa)
# heavy 1: not shown
# heavy 2: not shown
# light: B1 light
# notes: as for B1
# B20: heterodimerized antibody GpH7-A5/GpH7-B3 variant P238_04F/GpL16-k0 (antibody, human IgG1, kappa)
# heavy 1: not shown
# heavy 2: not shown
# light: B1 light
# notes: as for B1
# B21: heterodimerized antibody GpH7-A5/GpH7-B3 variant S267_06M/GpL16-k0 (antibody, human IgG1, kappa)
# heavy 1: not shown
# heavy 2: not shown
# light: B1 light
# notes: as for B1
# B22: heterodimerized antibody GpH7-A5/GpH7-B3 variant S267_03V/GpL16-k0 (antibody, human IgG1, kappa)
# heavy 1: not shown
# heavy 2: not shown
# light: B1 light
# notes: as for B1
# B23: heterodimerized antibody GpH7-A5/GpH7-B3 variant S267_07I/GpL16-k0 (antibody, human IgG1, kappa)
# heavy 1: not shown
# heavy 2: not shown
# light: B1 light
# notes: as for B1
# B24: heterodimerized antibody GpH7-A5/GpH7-B3 variant S267_16H/GpL16-k0 (antibody, human IgG1, kappa)
# heavy 1: not shown
# heavy 2: not shown
# light: B1 light
# notes: as for B1
# B25: heterodimerized antibody GpH7-A5/GpH7-B3 variant S267_19Q/GpL16-k0 (antibody, human IgG1, kappa)
# heavy 1: not shown
# heavy 2: not shown
# light: B1 light
# notes: as for B1
# B26: heterodimerized antibody GpH7-A5/GpH7-B3 variant N325_07I/GpL16-k0 (antibody, human IgG1, kappa)
# heavy 1: not shown
# heavy 2: not shown
# light: B1 light
# notes: as for B1
# B27: heterodimerized antibody GpH7-A5/GpH7-B3 variant L328_07I/GpL16-k0 (antibody, human IgG1, kappa)
# heavy 1: not shown
# heavy 2: not shown
# light: B1 light
# notes: as for B1
# B28: heterodimerized antibody GpH7-A5/GpH7-B3 variant L328_09D/GpL16-k0 (antibody, human IgG1, kappa)
# heavy 1: not shown
# heavy 2: not shown
# light: B1 light
# notes: as for B1
# B29: heterodimerized antibody GpH7-A5/GpH7-B3 variant S267_14T/GpL16-k0 (antibody, human IgG1, kappa)
# heavy 1: not shown
# heavy 2: not shown
# light: B1 light
# notes: as for B1
# B30: heterodimerized antibody GpH7-A5/GpH7-B3 variant S267_09D/GpL16-k0 (antibody, human IgG1, kappa)
# heavy 1: not shown
# heavy 2: not shown
# light: B1 light
# notes: as for B1
# B31: heterodimerized antibody GpH7-A5/GpH7-B3 variant V266_08L/GpL16-k0 (antibody, human IgG1, kappa)
# heavy 1: not shown
# heavy 2: not shown
# light: B1 light
# notes: as for B1
# B32: heterodimerized antibody GpH7-A5/GpH7-B3 variant S267_04F/GpL16-k0 (antibody, human IgG1, kappa)
# heavy 1: not shown
# heavy 2: not shown
# light: B1 light
# notes: as for B1
# Target: T1, FcγRIIa R (FcγRIIa, allotype R, Arg at …)
# Assay: Biacore SPR; binding relative to GpH7-A5/GpH7-B3/GpL16-k0 (=100)
row,He/Con_2aR (IIaR binding),Binder
1,148 % of control,B1
2,107 % of control,B2
3,120 % of control,B3
4,151 % of control,B4
5,105 % of control,B5
6,135 % of control,B6
7,150 % of control,B7
8,134 % of control,B8
9,140 % of control,B9
10,138 % of control,B10
11,175 % of control,B11
12,137 % of control,B12
13,44.4 % of control,B13
14,148 % of control,B14
15,144 % of control,B15
16,155 % of control,B16

row,He/Con_2aR (IIaR binding),Binder
1,156 % of control,B17
2,144 % of control,B18
3,152 % of control,B19
4,174 % of control,B20
5,122 % of control,B21
6,116 % of control,B22
7,111 % of control,B23
8,50.6 % of control,B24
9,135 % of control,B25
10,133 % of control,B26
11,124 % of control,B27
12,119 % of control,B28
13,81.9 % of control,B29
14,173 % of control,B30
15,142 % of control,B31
16,37.8 % of control,B32

# Target: T2, FcγRIIb, extracellular domain with …
# Assay: as above
row,He/Con_2b (IIb binding),Binder
1,200 % of control,B1
2,134 % of control,B2
3,152 % of control,B3
4,232 % of control,B4
5,172 % of control,B5
6,181 % of control,B6
7,251 % of control,B7
8,169 % of control,B8
9,204 % of control,B9
10,219 % of control,B10
11,379 % of control,B11
12,206 % of control,B12
13,57.6 % of control,B13
14,221 % of control,B14
15,197 % of control,B15
16,243 % of control,B16

row,He/Con_2b (IIb binding),Binder
1,218 % of control,B17
2,193 % of control,B18
3,217 % of control,B19
4,312 % of control,B20
5,210 % of control,B21
6,192 % of control,B22
7,192 % of control,B23
8,65.9 % of control,B24
9,218 % of control,B25
10,171 % of control,B26
11,160 % of control,B27
12,199 % of control,B28
13,104 % of control,B29
14,310 % of control,B30
15,236 % of control,B31
16,48 % of control,B32

# Target: T1, FcγRIIa R (FcγRIIa, allotype R, Arg at …)
# Assay: Biacore SPR; He/Con_2aR divided by He/Con_2b (FcγRIIb)
# Description: The heterodimerized antibodies He Abs in which one of the H chains was introduced with an alteration were assayed for their binding activities to each activating FcγR and inhibitory FcγR according to the method described in Example 4. […] The activating FcγRs in FIGS. 26, 27, 28, and 29 are FcγRIa, FcγRIIa (R), FcγRIIa (H), and FcγRIIIa, respectively.
# Analysis of interaction between objective antibody and the FcγR was carried out using Biacore T100 (GE Healthcare). HBS-EP+ (GE Healthcare) was used as the running buffer, and the measurement temperature was set to 25° C. Chips produced by immobilizing the antigen peptide by the amine coupling method to a Series S Sencor Chip CM5 (GE Healthcare), or alternatively, chips produced by allowing preliminarily biotinylated antigen peptides to interact with and immobilize onto a Series S Sensor Chip SA (certified) (GE Healthcare) were used. Antibodies of interest were captured onto an antigen peptide-immobilized chip, and allowed to interact to each FcγR diluted with running buffer. To regenerate and repeatedly use the chip, the antibodies captured on the chip were washed off by reacting 10 mM glycine-HCl, pH 1.5.
row,IIaR/IIb (He_2aR/2b),Binder
1,0.74,B1
2,0.8,B2
3,0.79,B3
4,0.65,B4
5,0.61,B5
6,0.75,B6
7,0.6,B7
8,0.79,B8
9,0.68,B9
10,0.63,B10
11,0.46,B11
12,0.66,B12
13,0.77,B13
14,0.67,B14
15,0.73,B15
16,0.64,B16

row,IIaR/IIb (He_2aR/2b),Binder
1,0.72,B17
2,0.75,B18
3,0.7,B19
4,0.56,B20
5,0.58,B21
6,0.61,B22
7,0.58,B23
8,0.77,B24
9,0.62,B25
10,0.78,B26
11,0.78,B27
12,0.6,B28
13,0.78,B29
14,0.56,B30
15,0.6,B31
16,0.79,B32
